Data reported in patent US20250177547A1, “PSMA-STEAP1 DUAL VARIABLE DOMAIN IMMUNOGLOBLIN (DVD-Ig) MOLECULES AND DRUG CONJUGATES” (AbbVie Inc., priority 2023, published 2025).
Marks after values point to notes of the source that are not given here.

What was measured:
HEK293-PSMA cells = experiment: In vitro cytotoxicity of MMAE conjugates (CellTiter-Glo), HEK293-PSMA; details: FIG. 3B/3E
22Rv1 xenograft = 22Rv1 xenograft study of MMAE conjugates; assay type: in vivo, mouse; details: FIG. 4A
Protocol: (§1) Male NSG mice were obtained from Jackson Laboratories (Bar Harbor, ME) for both LNCaP.FGC and 22Rv1 xenograft studies. Mice were housed by treatment group at seven to eight mice per cage. Food and water were available ad libitum. Mice were acclimated to the animal facilities for a period of at least one week prior to commencement of experiments. Animals were tested in the light phase of a 12-hour light:12-hour dark schedule (lights on at 06:00 hours).
(§2) To generate xenografts from LNCaP.FGC (ATCC) and from 22Rv1 (ATCC) cell lines, 5×10^6 viable LNCaP.FGC and 22Rv1 cells were inoculated subcutaneously into the right flank of male NSG mice, respectively. The injection volume was 0.1 mL and composed of a 1:1 mixture with Matrigel (BD, Franklin Lakes, NJ). Measurements of the length (L) and width (W) of the tumor were taken via electronic caliper and the tumor volume was calculated according to the following equation: V=L×W^2/2.
Mice were assigned to treatment groups so that the mean tumor volumes within groups were approximately 175-250 mm^3. […] Mice were euthanized (1) when tumor volume reached 2,000 mm^3, (2) when general efficacy parameters were confidently determined, or (3) when necessitated by other animal health issues.

LNCaP.FGC xenograft = LNCaP.FGC xenograft study of MMAE conjugates; assay type: in vivo, mouse
Protocol: as §1, §2
Mice were assigned to treatment groups so that the mean tumor volumes within groups were approximately 175-250 mm^3. An anti-PSMA-MMAE ADC at Dose-1 1×, an anti-STEAP1-MMAE ADC at Dose-1 1×, and various of the PSMA/STEAP-1 DVD-Igs conjugated with MMAE described above at Dose-1 1.33×(Clone 13 was administered at Dose-1 0.87×due to limited compound availability) were administered within 24-48 hours of assignment to treatment groups based on tumor volumes. Tumor volumes were estimated two times weekly after dosing, with study groups body weights taken at the time of tumor measurements. Mice were euthanized (1) when tumor volume reached 2,000 mm^3, (2) when general efficacy parameters were confidently determined, or (3) when necessitated by other animal health issues.
Parameters of Efficacy were determined as follows:
TGI (tumor growth inhibition)=1−(mean tumor volume of treatment group/mean tumor volume of treatment control group)×100 based on measurements on day of vehicle endpoint. P values are derived from Student's T test comparison of treatment group vs. vehicle control group.
TGD (tumor growth delay)=(T−C)/C×100, where T is the median time to endpoint of treatment group and C is the median time to endpoint of treatment control group. P values are derived from Kaplan Meier log-rank comparison of treatment group vs. vehicle control group.

B1: STEAP1-PSMA-(vcMMAE) Clone 15: PSMA-STEAP1 DVD-Ig clone 15 conjugated with monomethyl auristatin E (MMAE) (conjugate)
heavy: EVQLVESGGGVVQPGRSLRLSCVASGFPFNNYWMTWIRQAPGKGLEWIASITITGGTTYYPGSVKGRFTISRDNSKSTLYLQMNSLRAEDTAVYYCTRERYSTEYYPYYWYFDFWGQGTMVTVSSGGGGSGGGGSEVQLVQSGAEVKKPGSSVKVSCKASGYTFTDYYMNWVKQAPGKGLEWIGLINPSNGGTNYNQKFRDKATLTVDKSTSTAYMELSSLRSEDTAVYYCARRAQATSGDYWGQGTTVTVSS
light: DIQMTQSPSSLSASVGDRVTITCRTSQDIGNYLRWFQQKPGKSPKLMIYDAINLAAGVPSRFSGSGSGTDYTLTISSLQPEDVATYYCLQHNEYPYTFGQGTKLEIKGGSGGGGSGDIQMTQSPSSLSASVGDRVTITCHASQNINVWLSWYQQKPGKAPKLLIYKASNLHTGVPSRFSGSGSGTDFTFTISSLQPEDIATYYCQQGQTYPLTFGGGTKVEIK
modifications: left off: a dimerising Fc or GST; large carriers
HEK293-PSMA cells
  cytotoxic activity in HEK293-PSMA cells: weaker than PSMA-MMAE
22Rv1 xenograft
  activity in 22Rv1 xenograft model relative to monospecific ADCs: comparable or superior activity relative to monospecific ADCs
LNCaP.FGC xenograft; FIG. 4B
  activity in LNCaP.FGC xenograft model relative to monospecific ADCs: comparable or superior activity relative to monospecific ADCs
LNCaP.FGC xenograft; LNCaP.FGC xenograft, IP, QD x 1, >25 mm^3 but less than one-half of volume at onset
  PR (%) partial response: 38* %
LNCaP.FGC xenograft; LNCaP.FGC xenograft, IP, QD x 1, sum of CR and PR
  TR (%) total responders: 75*** %
LNCaP.FGC xenograft; LNCaP.FGC xenograft, IP, QD x 1, tumor burden ≤25 mm^3 for at least three consecutive measurements
  CR (%) complete response: 38%
LNCaP.FGC xenograft; LNCaP.FGC xenograft, male NSG mice, IP, QD x 1, day of comparison d 63 post inoculation
  TGI (%): 88*** %
LNCaP.FGC xenograft; LNCaP.FGC xenograft, male NSG mice, IP, QD x 1, tumor volume endpoint 1000 mm^3
  TGD (%): 229*** %
